Data from US20050095242A1 (published 2005).
Positions count from the first letter of the chain named. No end group written: not given here.

T1: human CCR4 on CCR4/EL-4 cells (CCR4-high-expressing cells) (human, UniProt P51679 1-360)
T1 construct: also called human CCR4-high-expressing cell
T1 sequence: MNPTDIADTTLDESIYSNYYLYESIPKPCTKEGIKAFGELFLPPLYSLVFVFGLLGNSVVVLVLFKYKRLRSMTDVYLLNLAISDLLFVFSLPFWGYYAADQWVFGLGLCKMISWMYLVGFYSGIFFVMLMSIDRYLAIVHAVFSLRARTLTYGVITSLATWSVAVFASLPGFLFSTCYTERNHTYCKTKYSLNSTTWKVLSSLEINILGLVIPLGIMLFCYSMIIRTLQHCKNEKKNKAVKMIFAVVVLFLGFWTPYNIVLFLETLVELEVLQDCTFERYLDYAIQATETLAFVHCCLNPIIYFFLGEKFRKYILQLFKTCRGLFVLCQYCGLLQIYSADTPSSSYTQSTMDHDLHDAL

T2: BSA-Compound 1 conjugate (human CCR4 extracellular region peptide Compound 1 conjugated to bovine serum … (human, also: conjugated to BSA via SMCC))
T2 construct: Coated antigen of the ELISA; also called CCR4 partial peptide
T2 peptide: DESIYSNYYLYESIPKPC

T3: biotinylated Compound 1 (biotinylated CCR4 partial peptide) (human, also: biotinylated, site not given here)
T3 peptide: DESIYSNYYLYESIPKPC

B1: anti-CCR4 human chimeric antibody KM2760 (antibody, V domains shown)
VH: EVQLVESGGDLMKPGGSLKISCAASGFIFSNYGMSWVRQTPDMRLEWVATISSASTYSYYPDSVKGRFTISRDNAENSLYLQMNSLRSEDTGIYYCGRHSDGNFAFGYWGRGTLVTVSA
VL: DVLMTQTPLSLPVSLGDQASISCRSSRNIVHINGDTYLEWYLQRPGQSPKLLIYKVSNRFSGVPDRFSGSGSGTDFTLKISRVEAEDLGVYYCFQGSLLPWTFGGGTRLEIRR
notes: Produced by transformant KM2760 (FERM BP-7054); also called anti-CCR4 chimeric antibody KM2760
B2: anti-CCR4 CDR-grafted antibody Gal0LV0 (antibody, V domains shown)
VH: EVQLVESGGDLVQPGRSLRLSCAASGFIFSNYGMSWVRQAPGKGLEWVATISSASTYSYYPDSVKGRFTISRDNAKNSLYLQMNSLRVEDTALYYCARHSDGNFAFGYWGQGTLVTVSS
VL: DIVMTQSPLSLPVTPGEPASISCRSSRNIVHINGDTYLEWYLQKPGQSPQLLIYKVSNRFSGVPDRFSGSGSGTDFTLKISRVEAEDVGVYYCFQGSLLPWTFGQGTKVEIK
notes: Expressed from pKANTEX93 with human CH and CL; CDR alone grafted
B3: anti-CCR4 CDR-grafted antibody HV0LV0 (antibody, V domains shown)
VH: B2 VH with D10G, R16G, I28T, A49S, A75S, S78T, V88A, L93V
VL: B2 VL
notes: Expressed from pKANTEX93 with human CH and CL

Legend:
[1] = molecular target: T1, human CCR4 on CCR4/EL-4 cells …; assay: flow cytometry (immunofluorescent method) on CCR4/EL-4 cells, 10 ug/ml antibody, reference antibody
Protocol: Into a 96 well plate, 2×10⁵ or more of CCR4/EL-4 cells, CCR4-high-expressing cells obtained in Reference Example 1, were dispensed. An antibody solution was prepared by diluting each of the purified antibodies and a human immunoglobulin (manufactured by Welfide) for preventing nonspecific staining to give concentrations of 10 μg/ml and 3.75 mg/ml, respectively, with a buffer for FACS (1% BSA-PBS, 0.02% EDTA, 0.05% NaN₃), and the antibody solution was added at 100 μl/well and allowed to react for 30 minutes in ice. As a negative control, an anti-human IL-5 receptor α chain antibody (WO97/10354) was reacted with the same concentration. After washing twice with 200 μl/well of the buffer for FACS, a PE-labeled anti-human IgG antibody (manufactured by Coulter) diluted 100 times was added at 50 μl/well. After the reaction in ice under shading and subsequent washing three times with 200 μl/well of the buffer for FACS, the reaction product was suspended in 500 µl of the buffer for FACS and the fluorescence intensity was measured by using a flow cytometer.

[2] = molecular target: T2, BSA-Compound 1 conjugate (human CCR4 …); assay: ELISA on BSA-Compound 1 conjugate, reference antibody
[3] = molecular target: T2, BSA-Compound 1 conjugate (human CCR4 …); assay: ELISA, COS-7 culture supernatant on BSA-Compound 1 conjugate
Protocol: Into a 96 well ELISA plate (manufactured by Greiner), 0.05 μg/ml of the prepared conjugate was dispensed in at 50 μl/well and allowed to stand at 4° C. overnight for adsorption. After washing with PBS, PBS containing 1% BSA (hereinafter referred to as “1% BSA-PBS”) was added thereto at 100 μl/well and allowed to react at room temperature for 1 hour to block the remaining active groups. After washing each well with PBS containing 0.05% Tween 20 (hereinafter referred to as “Tween-PBS”), a culture supernatant of the transformant was added at 50 μl/well and allowed to react at room temperature for 1 hour. After the reaction and subsequent washing of each well with Tween-PBS, a peroxidase-labeled goat anti-human IgG(γ) antibody solution (manufactured by American Qualex) diluted 6,000 folds with 1% BSA-PBS was added as a secondary antibody solution at 50 μl/well and allowed to react at room temperature for 1 hour. After the reaction and subsequent washing with Tween-PBS, an ABTS substrate solution (a solution prepared by dissolving 0.55 g of 2,2′-azino-bis(3-ethylbenzothiazoline-6-sulfonic acid) ammonium in 1 liter of 0.1 M citrate buffer (pH 4.2) and adding 1 μl/ml hydrogen peroxide just before use) was added at 50 μl well to develop color, and the reaction was stopped 20 minutes thereafter by adding 5% SDS solution at 50 μl/well. Thereafter, absorbance at 415 nm was measured.

[4] = molecular target: T3, biotinylated Compound 1 (biotinylated …); assay: BIAcore 2000, 4 ug/ml antibody over biotinylated Compound 1 on SA sensor tip
Protocol: In order to measure the binding activity in more detail, the binding activity of various purified antibodies was measured by using BIAcore 2000 (manufactured by BIACORE) as follows. In this case, HBS-EP (manufactured by BIACORE) was used as the buffer for diluting samples and for the measurement. First, 5 μl of 0.01 μg/ml solution of Compound 1 as a biotinylated CCR4 partial peptide was added to a sensor tip SA (manufactured by BIACORE) at a flow rate of 5 μl/minute and immobilized on the sensor tip.
To the prepared biotinylated compound 1-immobilized sensor tip, 20 μl of 4 μg/ml solution of each of the purified antibodies was added at a flow rate of 5 μl/minute, and after completion of the addition, the dissociation reaction was monitored for 4 minutes and then the sensor tip surface was regenerated by adding 5 μl of 10 mM HCl twice. In this way, a binding reaction curve (sensorgram) for Compound 1 was obtained.

Row | Binder | binding result [1] | binding result [2] | binding result [3] | binding result [4]
1 | B1 | binds | binds |  | 
2 | B2 |  |  | binds | binds
3 | B3 |  |  | binds | 
